Residue numbers refer to the chain shown, from its start.
T1: KW27-14 (human CD39 mutant, C-terminal EGFP) (human, UniProt P49961 1-510)
T1 construct: expressed on HEK293F cells; not shown: C-terminal EGFP fusion (vector pCMV3-GFPSpark)
T1 chain: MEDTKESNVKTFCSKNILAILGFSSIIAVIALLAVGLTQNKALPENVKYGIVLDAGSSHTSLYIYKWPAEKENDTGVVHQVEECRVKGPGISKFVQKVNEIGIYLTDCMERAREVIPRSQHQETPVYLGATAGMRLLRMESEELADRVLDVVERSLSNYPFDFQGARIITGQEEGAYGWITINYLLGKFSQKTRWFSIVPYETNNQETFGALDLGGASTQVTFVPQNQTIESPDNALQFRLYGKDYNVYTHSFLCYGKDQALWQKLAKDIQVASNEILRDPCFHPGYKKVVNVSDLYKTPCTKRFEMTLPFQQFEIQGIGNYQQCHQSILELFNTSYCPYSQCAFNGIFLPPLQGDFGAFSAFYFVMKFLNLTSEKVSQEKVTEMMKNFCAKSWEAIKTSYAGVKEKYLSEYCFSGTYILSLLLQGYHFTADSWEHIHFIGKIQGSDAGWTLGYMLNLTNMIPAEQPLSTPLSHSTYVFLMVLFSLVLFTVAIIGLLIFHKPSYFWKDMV

T2: KW27-12 (human CD39 mutant, C-terminal EGFP) (human, UniProt P49961 1-510)
T2 construct: expressed on HEK293F cells; not shown: C-terminal EGFP fusion (vector pCMV3-GFPSpark)
T2 chain: T1 chain with N388K, K392Q, S393P, A396E, H428A, T430A, A431D, D432A

T3: KW27-3 (human CD39 mutant, C-terminal EGFP) (human, UniProt P49961 1-510)
T3 construct: expressed on HEK293F cells; not shown: C-terminal EGFP fusion (vector pCMV3-GFPSpark)
T3 chain: T1 chain with E110A, R113T, E114A, N388K, K392Q, S393P, A396E

T4: KW27-9 (human CD39 mutant, C-terminal EGFP) (human, UniProt P49961 1-510)
T4 construct: expressed on HEK293F cells; not shown: C-terminal EGFP fusion (vector pCMV3-GFPSpark)
T4 chain: T1 chain with S294A, K298G, K303A, E306A, T308K, Q312A, N388K, K392Q, S393P, A396E

B1: Antibody T895 (antibody, V domains shown)
VH: EVQLQQSGPELVKPGASVKMSCKASGYTFTDYNMHWVKQSHGRTLEWIGYIVPLNGGSTFNQKFKGRATLTVNTSSRTAYMELRSLTSEDSAAYYCARGGTRFAYWGQGTLVTVSA
VL: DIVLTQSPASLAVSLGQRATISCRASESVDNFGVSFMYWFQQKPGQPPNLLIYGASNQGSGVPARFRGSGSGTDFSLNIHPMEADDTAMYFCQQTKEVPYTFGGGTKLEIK
notes: also called 31895
B2: Antibody 9-8B (antibody, V domains shown)
VH: QIQLVQSGPELKKPGETVKISCKASGYTFTHYGMNWVKQAPGKGLKWMGWINTYTGELTYADDFKGRFAFSLETSASTAYLQINNLKNEDTATYFCARRAYYRYDYVMDYWGQGTSVTVSS
VL: DIVMTQSQKFMSTSVGDRVSVTCKASHNVGTNVAWYQQKPGQSPKALIYSASYRYSGVPGRFTGSGSGTDFTLTISNVQSEDLAEYFCHQYNNYPYTFGGGTKLEIK
B3: hu23.H5L5 (antibody, V domains shown)
VH: QVQLVQSGAEVKKPGASVKVSCKASGYNLKDTFLHWVRQAPGQGLEWMGRIDPANGNIKYDPKFQGRVTITADTSANTAYMELISLRSEDTAVYYCANSPYYYGSGYRIFDVWGQGTTVTVSS
VL: QIVLTQSPATLSLSPGERATLSCSAFSSVNYMHWYQQKPGQAPRLLIYTTSNLASGIPTRFSGSGSGTSYTLTISSLEPEDFAVYYCQQRSTYPFTFGQGTKLEIK
notes: humanized c23
B4: c35 (antibody, V domains shown)
VH: EVRLQQSGAELVKPGASVKLSCTASGFNIEDTYVHWMKQRPEQGLEWIGRIDPAIDNSKYDPKFQGKATITAVSSSNTAYLQLSSLTSEDTAVYYCALYDGYNVYAMDYWGQGTSVTVSS
VL: DIVMTQAAFSNPVTLGTSASISCRSSKNLLHSNGITYLYWYLQRPGQSPQLLIYRASTLASGVPNRFSGSESGTDFTLRISRVEAEDVGVYYCAQLLELPHTFGGGTKLEIK
notes: its making is not described; also called chimeric antibody c35
B5: c34 (antibody, V domains shown)
VH: EIQVQQSGPELVKPGASVKVSCKASGYSFTDYNMYWVKQSHGKSLEWIGFIDPYNGYTSYNQKFKGKATLTIDKSSSTAFMHLNSLTSEDSAVYYCAIYGYDDAYYFDYWGQGTTLTVSS
VL: QIVLTQSPAIMSASPGEKVTITCSATSSVSYMHWFRQKPGTSPKLWIYSTSNLASGVPARFSGSGSGTSYSLTISRMAAEDAATYYCQQRITYPFTFGSGTKLEIT
notes: its making is not described; also called chimeric antibody c34

Biological target: T1, KW27-14 (human CD39 mutant, C-terminal …)
Experiment: FACS, mutant-EGFP on HEK293F cells
Method: (§1) Briefly, the human CD39 mutants were generated by gene synthesis and then cloned into an expression vector pCMV3-GFPSpark. The vectors containing the validated mutated sequences were prepared and transfected into HEK293F cells. Three days post transfection, the cells were collected to testing EGFP for transgene expression. A range of dosages of antibodies (start from 100 nM, 3-folds dilution, 11 points) were tested on the 20 generated mutants and stained by AlexFluor647 labelled anti-hIgG by FACS. Antibody binding was descripted as relative binding which is derived from AlexFluor647 intensity divided by GFP intensity.

Binding result, binds:
B1
B2
B3
B4
B5

Biological target: T2, KW27-12 (human CD39 mutant, C-terminal …)
Experiment: FACS, mutant-EGFP on HEK293F cells
Method: as §1

Binding result, binds:
B1
B2
B3
B4
B5

Biological target: T3, KW27-3 (human CD39 mutant, C-terminal …)
Experiment: FACS, mutant-EGFP on HEK293F cells
Method: as §1

Binding result, binds:
B1
B2
B3
B4
B5

Biological target: T4, KW27-9 (human CD39 mutant, C-terminal …)
Experiment: FACS, mutant-EGFP on HEK293F cells
Method: as §1

Binding result, binds:
B1
B2
B3
B4
B5

— patent US20210388105A1 (ELPISCIENCE SUZHOU BIOPHARMA, published 2021)
